The values that follow come from patent US20220267420A1 (Memorial Sloan Kettering, published 2022).

Assay [1] concerns the target T1, A4: … on HLA-A2 of T2 cells (human, UniProt A*02:01).
T1 construct: on T2 cells; R4A; also called A4 analog of the Foxp3-TLI peptide/HLA-A*02:01
In words: flow cytometry; T2 cells pulsed with the peptide at 50 ug/ml, stained with Foxp3-#32 bispecific mAb.
Excerpt: (§1) TLI peptide was substituted with alanine at position 1, 2, 3, 4, 5, 7, 8 and 9, or with glycine at position 10. Position 6 was already alanine and it was left intact.

Assay [2] addresses T2, A8: … on HLA-A2 of T2 cells (human, UniProt A*02:01).
T2 construct: on T2 cells; L8A; also called A8 analog of the Foxp3-TLI peptide/HLA-A*02:01
The description is as above.
Excerpt: as §1

The target in assay [3] is T3, A2: … on HLA-A2 of T2 cells (human, UniProt A*02:01).
T3 construct: on T2 cells; L2A; also called A2 analog of the Foxp3-TLI peptide/HLA-A*02:01
The assay is described as above.
Excerpt: as §1

Assay [4] addresses T4, A3: … on HLA-A2 of T2 cells (human, UniProt A*02:01).
T4 construct: on T2 cells; I3A; also called A3 analog of the Foxp3-TLI peptide/HLA-A*02:01
Described as above.
Excerpt: as §1

For assay [5], the target named is T5, A7: … on HLA-A2 of T2 cells (human, UniProt A*02:01).
T5 construct: on T2 cells; I7A; also called A7 analog of the Foxp3-TLI peptide/HLA-A*02:01
Described as above.
Excerpt: as §1

Assay [6] concerns the target T6, A1: … on HLA-A2 of T2 cells (human, UniProt A*02:01).
T6 construct: on T2 cells; T1A; also called A1 analog of the Foxp3-TLI peptide/HLA-A*02:01
The assay is described as above.
Excerpt: as §1

In assay [7] the target is T7, A5: … on HLA-A2 of T2 cells (human, UniProt A*02:01).
T7 construct: on T2 cells; W5A; also called A5 analog of the Foxp3-TLI peptide/HLA-A*02:01
The assay is described as above.
Excerpt: as §1

For assay [8], the target named is T8, A9: … on HLA-A2 of T2 cells (human, UniProt A*02:01).
T8 construct: on T2 cells; E9A; also called A9 analog of the Foxp3-TLI peptide/HLA-A*02:01
Described as above.
Excerpt: as §1

For assay [9], the target named is T9, G10: … on HLA-A2 of T2 cells (human, UniProt A*02:01).
T9 construct: on T2 cells; A10G; also called G10 analog of the Foxp3-TLI peptide/HLA-A*02:01
The assay is described as above.
Excerpt: as §1

Assay [10] has as its target T10, HLA-A*02:01 on T2 cells without added peptide (human).
T10 construct: Also serves as the HLA partner in the T2 stabilization assay of the TLI analog peptides; also called T2 cells alone; HLA-A*02 molecule
In words: flow cytometry; T2 cells without peptide, stained with Foxp3-#32 bispecific mAb. A general note: Flow cytometry measures light scatter and fluorescence of single cells or particles in a stream.
Excerpt: as §1

Assay [11] concerns the target T11, CD3 on the Jurkat T cell line (human, UniProt P07766 23-207).
T11 construct: whole, on cells; The result sentence says only 'CD3'; the epsilon chain comes from the description of the construct; also called human CD3 epsilon
In words: flow cytometry on Jurkat cells (HLA-A2 negative).
Description: Binding of the indicated bispecific mAb constructs to Foxp3+/HLA-A2+T lymphoma cell line MAC-2A and control cell line Jurkat. Since the bispecific mAb constructs were myc-tagged, the binding was tested by staining the cells with the bispecific mAbs, followed by a secondary mAb, mouse anti-myc conjugated to FITC. […] Binding strength is shown by median fluorescent intensity.

T11 sequence (P07766 23-207): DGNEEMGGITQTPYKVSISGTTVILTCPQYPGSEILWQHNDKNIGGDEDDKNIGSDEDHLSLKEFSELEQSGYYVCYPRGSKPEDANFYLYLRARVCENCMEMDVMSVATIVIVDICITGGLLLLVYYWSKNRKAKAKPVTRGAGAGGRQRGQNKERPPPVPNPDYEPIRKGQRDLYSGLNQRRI

B1: Foxp3-#32 bispecific mAb (bispecific antibody)
chain: QSVLTQPPSVSVAPGKTARITCGGNNIGSKSVHWYQQKPGQAPVLVIYYDSDRPSGIPERFSGSNSGNTATLTISRVEAGDEADYYCQVWDSSSDHYVFGTGTKVTVLGSRGGGGSGGGGSGGGGSLEMAEVQLVESGGGVVQPGRSLRLSCAASGFTFNNHAMHWVRQAPGKGLEWVAVISFDGDDKFYADSVKGRFTISRDNSRNTLFLQMNNLRPEDTAVYYCSRDPYHFASGSYSYFDYWGQGTLVTVSSTSGGGGSDVQLVQSGAEVKKPGASVKVSCKASGYTFTRYTMHWVRQAPGQGLEWIGYINPSRGYTNYADSVKGRFTITTDKSTSTAYMELSSLRSEDTATYYCARYYDDHYCLDYWGQGTTVTVSSGEGTSTGSGGSGGSGGADDIVLTQSPATLSLSPGERATLSCRASQSVSYMNWYQQKPGKAPKRWIYDTSKVASGVPARFSGSGSGTDYSLTINSLEAEDAATYYCQQWSSNPLTFGGGTKVEIKHHHHHH
notes: Bispecific T cell engager format, made in CHO cells and purified through its His tag; also called FoxP3-#32 BsAb; Foxp3-bispecific mAb
Take B1: the “Median:PE-A” value in assay [1] was 4450; in assay [2], 122; in [3] it was 603; in assay [4], 5510; in assay [5], 3470; in assay [6] it was 5620. In addition, the “Median:PE-A” value in assay [7] came to 861; in assay [8] it was 117; in [9], 214. Moreover, the binding result in assay [10] is given as “no binding”.

B2: Foxp3-#32 mAb, mouse IgG1 form (antibody, V domains shown)
VH: EVQLVESGGGVVQPGRSLRLSCAASGFTFNNHAMHWVRQAPGKGLEWVAVISFDGDDKFYADSVKGRFTISRDNSRNTLFLQMNNLRPEDTAVYYCSRDPYHFASGSYSYFDYWGQGTLVTVSS
VL: QSVLTQPPSVSVAPGKTARITCGGNNIGSKSVHWYQQKPGQAPVLVIYYDSDRPSGIPERFSGSNSGNTATLTISRVEAGDEADYYCQVWDSSSDHYVFGTGTKVTVL
modifications: APC-conjugated in some stainings; the letters do not carry the dye.
notes: Mouse IgG1 form of the TCR-mimic antibody, used for flow cytometry and APC-conjugated in some stainings; Where the text says only 'Foxp3-#32 mAb' in the Treg and cell line stainings, the methods and legends name the mouse IgG1 form; also called mAb Foxp3-#32; mAb-Foxp3-#32
Take B2: in assay [11], the binding result is recorded as “no binding (tested: 1 ug/ml)”.
